± gives the standard error. Fewer inactive variants are shown than the library holds.
B1: glmS ribozyme (parent)
chain: AUAAAAGCGCCAGAACUACAGAAAUGUAGUUGACGAGGAGGAGGUUUAUCGAAUUUUCGGCGGAUGCCUCCAAA

Variants of: B1
Assay: self-cleavage kobs at 10000 uM GlcN6P; higher = faster cleavage; RNA array
Settings: with glucosamine-6-phosphate
How it was run: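 E. coli RNA polymerase transcribed barcoded ribozyme variants in situ on sequenced MiSeq chips, which were tracked via a hybridised Cy3 probe at 37 °C. Tiles were imaged over ~14 h after glucosamine-6-phosphate (40 μM to 10 mM) in HEPES/KCl/Mg(OAc)2 buffer was flowed in. Normalised per-tile medians were fit to one- or two-exponential decays for kobs, and kcat and KM came from weighted Michaelis–Menten fits.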

Variant	self-cleavage kobs at 10000 uM GlcN6P [s⁻¹]
A33C U45C U65C	< 1e-05
A33U C50G C61A C70U	6e-05 ± 1.8e-05
G32A A39U C68U	0.000655 ± 0.00014
G35A A36U G43U	< 1e-05
C16U A42U A52C	< 1e-05
G9A C10G U69G	0.000596 ± 0.00021
G44A U56A A64G	0.000101 ± 2.4e-05
A36G A42C G59U	< 1e-05
G13U G37A G40U	< 1e-05
A6C U45C U69G	< 1e-05
A14U U49C C70A	< 1e-05
G13A C71A	0.000168 ± 3.3e-05
G13U U55G C67U	0.0003 ± 6.1e-05
U31C A42C A64G	< 1e-05
U31A U46G U56G	0.00127 ± 0.00022
A12G G13U G40A	4.65e-05 ± 1.4e-05
U30C G51A C67G	< 1e-05
C11U G32U C61G U69C	0.00014 ± 3.4e-05
C34U A36C	< 1e-05
C8G G43A G44A C67A C70G	< 1e-05
A6C G37A C68A	< 1e-05
A12C G29C A39U	0.000876 ± 0.0002
U30C A36G U54A	< 1e-05
C8U C16A A39C A42C G59C C67A C70U	< 1e-05

Variant	self-cleavage kobs at 10000 uM GlcN6P [s⁻¹]
C8U U54A U55A C67G	0.000463 ± 0.00023
G32A U56A C67G	0.000139 ± 2e-05
G38A C61A C71U	< 1e-05
A39G C67A C68A	6.69e-05 ± 1.7e-05
G29C U45A C68U	0.000376 ± 0.00011
G38U A53U	< 1e-05
C34U U45A C50A	< 1e-05
U31G G38A A53C U65C	< 1e-05
A33C U45G	4.71e-05 ± 1e-05
G44U A64C C70U	< 1e-05
G32U U47G C70G	0.00012 ± 3.4e-05
G13A C34G A52C	< 1e-05
A12U C16A U65C	5.77e-05 ± 1.6e-05
A14G A33U A39U	4.23e-05 ± 1.4e-05
A14G U31C C58A C68U C70U	3.74e-05 ± 1.6e-05
A15G G29C G44C	< 1e-05
U30A C34G G43U C61U G63U	< 1e-05
A39C G43C C50A	< 1e-05
C50U G60U C70A	< 1e-05
U56A C58A C67G	7.18e-05 ± 2.4e-05
G29A A52G C67G	5.89e-05 ± 1.1e-05
A52U G66U C67A	8.48e-05 ± 2.8e-05
C8U G13U A15U C16U G32C A48U	< 1e-05
G9U A15U C34A C58G	< 1e-05

Variant	self-cleavage kobs at 10000 uM GlcN6P [s⁻¹]
A42G U45C U46C	0.00102 ± 0.00019
A33U U57C C67G U69A	< 1e-05
A15C G43C G51A C58G	< 1e-05
A15U G37A U47A C67G C70G	< 1e-05
C50G A53G C68G C70A	7.46e-05 ± 1.9e-05
G40A G44U A64C	< 1e-05
A14U C34G C71U	< 1e-05
A33G G40U A52G C58A	< 1e-05
A14C A39U A53G	0.00135 ± 0.0004
G13U A14C C58G	7.6e-05 ± 1.7e-05
G41C G59U G60C	< 1e-05
G44C U55C U57C G59U	< 1e-05
C10U A39C C61U C68G	< 1e-05
G37C A53G U55G	3.2e-05 ± 1.4e-05
G29A G40C G44A	< 1e-05
A15U U49A A52G	< 1e-05
G32A U55A C67G	8.33e-05 ± 2.7e-05
C16U U46C C58G C61G	5.92e-05 ± 2.1e-05
G7C A14U C67U C68G	< 1e-05
G37A G43U U55G C68G	0.000281 ± 7.9e-05
G7A A33G C68U C70G	5.57e-05 ± 2e-05
G26U G44U	0.000189 ± 3.6e-05
C10A A36C C50U G59C	< 1e-05
A12C G37A U47G	0.000241 ± 4.8e-05

Variant	self-cleavage kobs at 10000 uM GlcN6P [s⁻¹]
G7C C11A G13A	< 1e-05
A15C U46C G62U	< 1e-05
A6C A14G A64G	0.000191 ± 3.2e-05
C10U A15G G35A	< 1e-05
U54A A64C	0.000157 ± 2.8e-05
G7A U57C	< 1e-05
G32C G66A	7.35e-05 ± 1.4e-05
A33C G43U U49C C68U	< 1e-05
A15U U55G G63U C67U	< 1e-05
C8A A36U C61G G66A	< 1e-05
G9A A53G G66U	< 1e-05
G9A A33U G51A A52U U55A	< 1e-05
A6U A14G A36U A48U G63U	< 1e-05
U31G A33U A53G	2.81e-05 ± 1.3e-05
C11G G66C	< 1e-05
A39C A42U U46G	3.93e-05 ± 1.5e-05
C10U C58U G59C	< 1e-05
A14U A52U U54C	0.000114 ± 1.6e-05
C8U C34G C58G G60U C67U	< 1e-05
C11G U30A G59C	0.000168 ± 3.9e-05
A48G A52G C71G	< 1e-05
A12U A33C U47C C67G	< 1e-05
A12U A48C U49C C50A C68U	< 1e-05
G37U A52G A64C C70A	< 1e-05

Variant	self-cleavage kobs at 10000 uM GlcN6P [s⁻¹]
C10U C34A G41U	< 1e-05
A12G G43U G60C	< 1e-05
A12G G21U A53U U69A	0.0001 ± 2.2e-05
A14U A39C G66U	0.000116 ± 2.2e-05
C11G G38U G41A C68G	< 1e-05
C8A U56C C70G	< 1e-05
A15U A39U U55A	0.00299 ± 0.00069
A14G A42U A52G	6.3e-05 ± 1.1e-05
C11G A15U C50A G51U C70A	4.33e-05 ± 1.2e-05
A53G U56G C71G	0.00022 ± 5.2e-05
A12U G32U U54C	0.000319 ± 5.4e-05
A14U G40C U56A A64G	8.64e-05 ± 2.9e-05
A6C G32A G43U	< 1e-05
A15U C70U C71U	6.65e-05 ± 1.8e-05
C11U A42C U69A	9.21e-05 ± 2.5e-05
U31C A39C G40U G60U	< 1e-05
A15G U55G C58A	0.000435 ± 8.3e-05
C10G C61A G66U	< 1e-05
U49A U56A A64C	< 1e-05
A12U C16A C58A	7.98e-05 ± 1.6e-05
A12C G32A G35A G51C	< 1e-05
C8G C50G C70G	0.000104 ± 2.2e-05
A14C A42G C61A	< 1e-05
A39C G40U G59C C70U	< 1e-05

Variant	self-cleavage kobs at 10000 uM GlcN6P [s⁻¹]
A15C A33G A48C A64U	< 1e-05
G13C A15C U49C	< 1e-05
U47G U55C C67A	0.000309 ± 4.9e-05
G43U U55G	3.47e-05 ± 1.3e-05
C11U A12G C50U	< 1e-05
U31C C58U G63C	< 1e-05
U47G A48U C68U	9.1e-05 ± 1.8e-05
A12C G51A G59U G66U	< 1e-05
A6G A42U G59U	< 1e-05
G32A U55C G60U C61U	< 1e-05
G43A U46A G59C	< 1e-05
C11U G66U C71G	< 1e-05
G29C G32A U54A	0.000923 ± 0.00011
U47C U65G C71U	0.00338 ± 0.00055
G29A U56G C67A	0.000277 ± 5.7e-05
G32C G37U G44C A52C	< 1e-05
G29C A36G G60C U69G	< 1e-05
C11U A12G A14G G26U	0.00104 ± 0.00024
A15G A42U U69A	0.00624 ± 0.0018
A39C U57A C58G G63U	< 1e-05
U31C G66C	8.11e-05 ± 1.3e-05
A14U U30C G38C	< 1e-05
G37A U56C G66U	2.45e-05 ± 1.1e-05
C16A A33C A42C C71U	< 1e-05

Variant	self-cleavage kobs at 10000 uM GlcN6P [s⁻¹]
A12U G44U G51A	< 1e-05
C8A A15U G35C	< 1e-05
A23C C71A	0.00399 ± 0.00084
U54A G60U A64U	< 1e-05
G13A G38A A64G	< 1e-05
G38U A39G A42C A48U	< 1e-05
C11G G40C U54A C70U C71G	< 1e-05
A15G A52G G66A C68U	0.000149 ± 2.8e-05
U31G C58U	9.69e-05 ± 1.1e-05
U49A C50A	< 1e-05
G38C A53C C67U	< 1e-05
C8A C11G A48U C67G C71A	< 1e-05
C34U U49C C50G C61U C68G C71G	0.000303 ± 7.9e-05
G40A G59U C61A	< 1e-05
C10A A15C C16U G40A G44A C61G	< 1e-05
G21A A33U	0.00012 ± 2.2e-05
A12C G29A A36G	< 1e-05
A52C U54G C71G	< 1e-05
G7A A64G C67U C70G	< 1e-05
G29C U69C C71U	4.54e-05 ± 2.1e-05
U31C A48C	3.72e-05 ± 7.7e-06
A1U U2G A3G A5U G44A	4.04e-05 ± 1.7e-05
A6C U31G G41C U54A U55C C68U	< 1e-05

— the supplement of paper PMC7125110
